Reference: patent publication US20240018213A1 (OHIO STATE INNOVATION FOUNDATION, published 2024)

Tests used:
mNotch1ECD-Fc [1] = molecular target: T1, mNotch1ECD-Fc (mouse, UniProt Q01705 19-1725); experiment: SPR, signal on immobilized mNotch1ECD-Fc against immobilized BSA negative control at the same Tan 6 concentrations
T1 construct: extracellular domain; Immobilized on the SPR chip; also called mouse full length notch extracellular domain; not shown: Fc part
Description: (§1) FIG. 25. Open surface plasmon resonance (SPR) binding experiments of DLL1 Tandem 6× against immobilized mouse full length notch extracellular domain (Top) and BSA negative control (bottom). DLL1 Tandem 6× was injected at concentrations of 2.2 μM, 0.45 μM, 0.22 μM, 0.11 μM, and 0 μM (HBS buffer only). Signal to noise of these binding experiments were 3 to 1.
(§2) The signal:noise of binding to Notch1 versus BSA is about 3:1 at the same concentrations.

mNotch1ECD-Fc [2] = molecular target: T1, mNotch1ECD-Fc; experiment: SPR (open SPR), mNotch1ECD-Fc immobilized, Tan 6 injected at 2.2, 0.45, 0.22, 0.11 and 0 µM; apparent KD
Description: as §1, §2

T1 sequence (Q01705 19-1725): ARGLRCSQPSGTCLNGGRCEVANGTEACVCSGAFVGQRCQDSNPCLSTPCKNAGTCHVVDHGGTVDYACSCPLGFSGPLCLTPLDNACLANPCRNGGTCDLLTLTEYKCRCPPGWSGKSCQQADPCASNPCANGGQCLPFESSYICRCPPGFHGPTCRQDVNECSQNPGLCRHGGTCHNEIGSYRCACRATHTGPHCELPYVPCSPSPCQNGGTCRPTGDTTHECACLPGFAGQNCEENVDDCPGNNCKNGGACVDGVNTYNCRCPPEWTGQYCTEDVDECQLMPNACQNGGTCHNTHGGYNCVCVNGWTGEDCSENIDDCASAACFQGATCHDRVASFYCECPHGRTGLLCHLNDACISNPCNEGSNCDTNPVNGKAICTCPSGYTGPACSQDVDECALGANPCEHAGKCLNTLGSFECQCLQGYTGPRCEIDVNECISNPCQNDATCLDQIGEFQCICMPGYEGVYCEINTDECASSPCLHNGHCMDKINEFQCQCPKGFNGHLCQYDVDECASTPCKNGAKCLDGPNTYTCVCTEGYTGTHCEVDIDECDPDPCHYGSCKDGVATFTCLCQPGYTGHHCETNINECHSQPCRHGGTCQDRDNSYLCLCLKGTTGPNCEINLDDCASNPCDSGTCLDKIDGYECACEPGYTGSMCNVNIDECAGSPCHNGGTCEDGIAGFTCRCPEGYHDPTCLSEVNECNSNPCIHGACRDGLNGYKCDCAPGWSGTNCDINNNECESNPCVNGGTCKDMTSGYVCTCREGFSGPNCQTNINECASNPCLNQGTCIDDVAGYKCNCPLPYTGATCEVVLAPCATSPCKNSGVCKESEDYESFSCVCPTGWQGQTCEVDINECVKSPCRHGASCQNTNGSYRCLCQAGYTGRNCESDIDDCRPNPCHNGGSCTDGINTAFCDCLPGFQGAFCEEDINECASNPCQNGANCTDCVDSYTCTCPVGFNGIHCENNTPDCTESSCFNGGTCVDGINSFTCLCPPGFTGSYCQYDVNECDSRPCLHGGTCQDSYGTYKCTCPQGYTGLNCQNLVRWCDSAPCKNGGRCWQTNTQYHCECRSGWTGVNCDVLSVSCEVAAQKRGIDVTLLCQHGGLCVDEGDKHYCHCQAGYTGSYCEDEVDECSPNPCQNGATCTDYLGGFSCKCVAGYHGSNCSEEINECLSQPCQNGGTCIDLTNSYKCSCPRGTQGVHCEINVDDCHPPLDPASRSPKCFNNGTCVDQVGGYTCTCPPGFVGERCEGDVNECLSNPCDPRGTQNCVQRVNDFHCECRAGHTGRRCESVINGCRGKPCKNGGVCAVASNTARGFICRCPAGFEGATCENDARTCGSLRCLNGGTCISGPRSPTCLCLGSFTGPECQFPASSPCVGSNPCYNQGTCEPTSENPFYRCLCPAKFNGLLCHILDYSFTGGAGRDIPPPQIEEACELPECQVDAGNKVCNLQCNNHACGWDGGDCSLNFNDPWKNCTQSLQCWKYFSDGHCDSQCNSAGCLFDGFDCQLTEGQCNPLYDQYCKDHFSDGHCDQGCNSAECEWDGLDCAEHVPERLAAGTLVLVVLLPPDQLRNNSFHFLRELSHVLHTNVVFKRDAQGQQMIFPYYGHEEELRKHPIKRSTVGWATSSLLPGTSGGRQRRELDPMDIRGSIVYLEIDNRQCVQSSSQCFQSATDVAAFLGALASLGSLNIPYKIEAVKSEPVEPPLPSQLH

B1: MuDLL1.DSL-EGF12.Tan 6 (NL 99) (ligand)
chain: MAAHHHHHHGGENLYFQGFVCDEHYYGEGCSVFCRPRDDAFGHFTCGDRGEKMCDPGWKGQYCTDPICLPGCDDQHGYCDKPGECKCRVGWQGRYCDECIRYPGCLHGTCQQPWQCNCQEGWGGLFCNQGSSGSSGFVCDEHYYGEGCSVFCRPRDDAFGHFTCGDRGEKMCDPGWKGQYCTDPICLPGCDDQHGYCDKPGECKCRVGWQGRYCDECIRYPGCLHGTCQQPWQCNCQEGWGGLFCNQGSSGSSGFVCDEHYYGEGCSVFCRPRDDAFGHFTCGDRGEKMCDPGWKGQYCTDPICLPGCDDQHGYCDKPGECKCRVGWQGRYCDECIRYPGCLHGTCQQPWQCNCQEGWGGLFCNQGSSGSSGFVCDEHYYGEGCSVFCRPRDDAFGHFTCGDRGEKMCDPGWKGQYCTDPICLPGCDDQHGYCDKPGECKCRVGWQGRYCDECIRYPGCLHGTCQQPWQCNCQEGWGGLFCNQGSSGSSGFVCDEHYYGEGCSVFCRPRDDAFGHFTCGDRGEKMCDPGWKGQYCTDPICLPGCDDQHGYCDKPGECKCRVGWQGRYCDECIRYPGCLHGTCQQPWQCNCQEGWGGLFCNQGSSGSSGFVCDEHYYGEGCSVFCRPRDDAFGHFTCGDRGEKMCDPGWKGQYCTDPICLPGCDDQHGYCDKPGECKCRVGWQGRYCDECIRYPGCLHGTCQQPWQCNCQEGWGGLFCNQ
notes: also called DLL1 Tandem 6×; hexamer
signal:noise of binding to Notch1 versus BSA (mNotch1ECD-Fc [1]): ~3 ratio (Notch1 : BSA)
Kd (mNotch1ECD-Fc [2]): 1500 nM
